The target in this series is HIV-1 reverse transcriptase WT (Human immunodeficiency virus type 1, UniProt P04585;P04585 588-1147;588-1027). The experiment in a line: site-specific Fe2+ footprinting; 6 mM MgCl2, 1 uM EFdA-TP, 1 mM Fe2+, varied dTTP; RT 600 nM, T/P 100 nM; mainly pre-translocation; Footprinting: 120 mM sodium cacodylate pH 7, 20 mM NaCl, 6 mM MgCl2, 1 uM EFdA-TP, 7 min pre-incubation with dTTP, then 1 mM ammonium iron sulfate 5 min; temperature not given; EMSA conditions not in the material. As to conditions: protein: recombinant; copies: 1;1; label: 5'-Cy3 on template Td43; template 5' overhang 12 nt after EFdA-MP addition; other end blunt. (In EMSA bound probe runs differently from free probe, usually more slowly.)

B1: Td43/Pd30-EFdA-MP (dsDNA)
DNA 1: CCATAGATAGCATTGGTGCTCGAACAGTGACAATCAGTGTAGA
DNA 2: TCTACACTGATTGTCACTGTTCGAGCACCAA
modifications: EFdA-MP (4'-ethynyl-2-fluoro-2'-deoxyadenosine monophosphate) as 3'-terminal nucleotide of primer, written A; added in situ by RT to Pd30 (S9)
On to B1, for which the binding result is recorded as “binds”.

Values taken from PMC3695782, “Hypersusceptibility mechanism of Tenofovir-resistant HIV to EFdA”.
